Data published in patent US20080280824A1, “COMPOSITIONS AND METHODS FOR TREATMENT OF CANCER OR NEURODEGENERATIVE DISEASE WITH PEPTIDE BASED MICROTUBULE STABILIZERS OR INHIBITORS” (University of Washington, priority 2007, published 2008).
Entries after “also recorded” stand apart in the source; their conditions may differ. Blank lines part the entries; values can stand above or below the molecule they belong to.

Experiments:
Bovine brain tubulin [1] = molecular target: T1, Bovine brain tubulin (Bos taurus, UniProt P81947+Q6B856); test: Microtubule assembly assay (DAPI fluorescence, Microtubule Stabilization/Destabilization Assay kit); assay type: biochemical; settings: for effect on total microtubule assembly / amount of microtubules formed in 45 minutes / effect on rate of microtubule assembly: peptide or control molecule; for effect on microtubule assembly, vs absence of αB crystallin: wt or mutant αB crystallin protein, tubulin alone normalized to 1.0
T1 construct: Bovine brain tubulin was dissolved to 200 μM; purchased Cytoskeleton; Denver, Colo; host or cells: bovine brain
T1 sequence (P81947 whole entry): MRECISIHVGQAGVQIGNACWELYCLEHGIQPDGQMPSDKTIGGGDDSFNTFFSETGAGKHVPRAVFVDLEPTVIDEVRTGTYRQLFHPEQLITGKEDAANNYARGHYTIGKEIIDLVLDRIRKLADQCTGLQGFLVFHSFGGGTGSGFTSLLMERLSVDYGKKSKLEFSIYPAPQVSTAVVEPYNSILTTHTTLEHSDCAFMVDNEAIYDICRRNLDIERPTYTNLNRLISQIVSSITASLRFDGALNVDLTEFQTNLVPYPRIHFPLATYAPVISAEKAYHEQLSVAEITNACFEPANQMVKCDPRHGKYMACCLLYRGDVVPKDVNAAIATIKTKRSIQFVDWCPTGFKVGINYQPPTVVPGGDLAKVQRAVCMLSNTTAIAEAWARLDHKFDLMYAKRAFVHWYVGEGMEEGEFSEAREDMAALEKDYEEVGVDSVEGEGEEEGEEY
T1 sequence (Q6B856 whole entry): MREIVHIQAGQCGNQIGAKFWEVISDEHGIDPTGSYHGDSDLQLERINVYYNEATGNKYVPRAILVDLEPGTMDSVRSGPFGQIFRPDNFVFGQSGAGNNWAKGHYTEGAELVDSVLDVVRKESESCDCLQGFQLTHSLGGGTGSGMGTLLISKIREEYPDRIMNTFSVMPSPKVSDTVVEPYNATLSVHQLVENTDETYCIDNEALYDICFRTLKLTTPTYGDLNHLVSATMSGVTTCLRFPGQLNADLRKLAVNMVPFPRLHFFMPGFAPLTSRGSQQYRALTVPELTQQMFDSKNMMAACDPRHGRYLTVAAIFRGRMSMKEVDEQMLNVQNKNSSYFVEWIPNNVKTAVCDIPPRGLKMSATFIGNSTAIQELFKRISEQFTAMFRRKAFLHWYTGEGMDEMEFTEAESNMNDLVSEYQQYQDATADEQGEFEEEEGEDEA
Protocol: Microtubule assembly assays. The effect of selected αB crystallin peptides on the in vitro assembly of tubulin into microtubules was evaluated using the Microtubule Stabilization/Destabilization Assay kit (Cytoskeleton; Denver, Colo.) as described previously. Bonne et al., J Biol Chem 260:2819-25, 1985. Bovine brain tubulin was dissolved to 200 μM in 80 mM PIPES, 2 mM MgCl2, 0.5 mM EGTA, 10 μM DAPI, 1 mM GTP pH 6.9. 8.5 μl of the tubulin was mixed with 40 μl of 80 mM PIPES, 2 mM MgCl2, 0.5 mM EGTA, 7.4 μM DAPI, 16% Glycerol, 1.1 mM GTP pH 6.9 and 4.3 μl of 2 mM peptide in 2.5% DMSO, 2 mM Paclitaxel (polymerization promoter) in 100% DMSO, 15 mM CaCl2 (polymerization inhibitor) in water, or 2.5% DMSO only. Microtubule assembly was monitored by measuring the fluorescence of DAPI, a molecule whose emission fluorescence at λ=460 is enhanced 8-fold when it is incorporated into assembled microtubules. Bonne et al., J Biol Chem 260:2819-25, 1985. Fluorescence of samples were continuously read on a Perkin Elmer Victor^3 V fluorescence plate reader (Excitation λ=355 nm, Emission λ=460 nm) at 37° C. for 45 minutes.
The effect of wt and three mutant αB crystallins, Δ41-58, αAβ8, and Δ155-165 on the in vitro assembly of tubulin into microtubules was evaluated using the Microtubule Stabilization/Destabilization Assay kit described above (Cytoskeleton; Denver, Colo.). Bovine brain tubulin was dissolved to 200 μM in 80 mM PIPES, 2 mM MgCl2, 0.5 mM EGTA, 10 μM DAPI, 1 mM GTP pH 6.9. 8.5 μl of the tubulin was mixed with 40 μl of 80 mM PIPES, 2 mM MgCl2, 0.5 mM EGTA, 7.4 μM DAPI, 16% Glycerol, 1.1 mM GTP pH 6.9 and 4.3 μl of 80 μM protein in 20 mM Tris-Cl, pH8.0 or Tris-Cl buffer only. Fluorescence of samples were continuously read on a Perkin Elmer Victor^3 V fluorescence plate reader (Excitation λ=355 nm, Emission λ=460 nm) at 37° C. for 45 minutes.

pre-formed microtubules = test: Microtubule disassembly assay (DAPI fluorescence); assay type: biochemical, Bovine; settings: for effect on microtubule disassembly / inhibition of microtubule disassembly: peptide 170 μM, 34 μM pre-formed microtubules; for effect on microtubule disassembly / inhibition of microtubule disassembly / effect on microtubule disassembly (words), vs absence of αB crystallin: 23° C., 20 minutes; for effect on microtubule disassembly (words), vs absence of αB crystallin: wt or mutant αB crystallin (6.8 μM and 34 μM), 34 μM microtubules
Protocol: Microtubule disassembly assays. The effect of αB crystallin peptides and mutants on the in vitro disassembly of microtubules into soluble tubulin was evaluated using the Microtubule Stabilization/Destabilization Assay kit described above (Cytoskeleton; Denver, Colo.) as described previously^36. 34 μM pre-formed microtubules were incubated with the αB crystallin peptides (170 μM) or wt and mutant αB crystallins (6.8 μM and 34 μM) at 23° C. for 20 minutes. Incubation of microtubules at 23° C. results in the spontaneous disassembly of microtubules. The decrease in DAPI fluorescence at λ=460 nm was measured continuously for 20 minutes by exciting the samples at λ=355 nm using a Perkin Elmer Victor^3 V fluorescence plate reader.

Bovine brain tubulin [2] = test: Tubulin thermal aggregation assay (absorbance at 340 nm); assay type: biochemical; settings: for effect on thermal aggregation of tubulin: synthetic peptide, 34 μM tubulin; for effect on tubulin aggregation, vs absence of αB crystallin: wt or mutant αB crystallin protein
Protocol: Tubulin aggregation assays. The effect of αB crystallin peptides and mutants on the thermal aggregation of tubulin was evaluated using ultra-violet spectroscopy. Bovine brain tubulin was dissolved to 200 μM in 80 mM PIPES, 2 mM MgCl2, 0.5 mM EGTA, pH 6.9. 4.25 μl of 0.08, 0.4, or 2 mM test peptide or protein was diluted into 40 μl of 80 mM PIPES, 2 mM MgCl2, 0.5 mM EGTA, pH 6.9. 8.5 μl of the 200 μM tubulin was added to each sample. Samples were heated at 52° C. and the absorbance at λ=340 nm was measured continuously for 60 minutes using a Pharmacia Biotech Ultrospec 3000. GTP and glycerol were not present in the samples because they induce the assembly of microtubules.

[3] = 34 μM tubulin, 37° C., 45 minutes, vs tubulin alone
[4] = 34 μM tubulin, 37° C., vs tubulin alone

Molecule: CC(=O)O[C@H]1C(=O)[C@@]2(C)[C@H]([C@H](OC(=O)c3ccccc3)[C@]3(O)C[C@H](OC(=O)[C@H](O)[C@@H](NC(=O)c4ccccc4)c4ccccc4)C(C)=C1C3(C)C)[C@]1(OC(C)=O)CO[C@@H]1C[C@@H]2O [Paclitaxel, reference compound]
effect on rate of microtubule assembly (Bovine brain tubulin [1]; [4]): accelerated microtubule assembly

Molecule: ERTIPITRE [synthetic peptide of human αB crystallin C-terminal extension, residues 156-164]
effect on total microtubule assembly / amount of microtubules formed in 45 minutes (Bovine brain tubulin [1]; [3]): increased
effect on total microtubule assembly / amount of microtubules formed in 45 minutes (Bovine brain tubulin [1]; 34 μM tubulin, 37° C., 45 minutes, vs tubulin alone, listed as 155ERTIPITRE165): promote microtubule assembly
effect on total microtubule assembly / amount of microtubules formed in 45 minutes (Bovine brain tubulin [1]; 34 μM tubulin, 37° C., 45 minutes, vs tubulin alone, listed as 156ERTIPITRE164): promote microtubule assembly
effect on rate of microtubule assembly (Bovine brain tubulin [1]; [4]): increased
effect on microtubule disassembly (pre-formed microtubules): decreased
inhibition of microtubule disassembly (pre-formed microtubules): ~36%
effect on microtubule disassembly (pre-formed microtubules; listed as 156ERTIPITRE164): inhibit microtubule disassembly
effect on thermal aggregation of tubulin (Bovine brain tubulin [2]; 52° C., 60 minutes): decreased

Molecule: DRFSVNLDVKHFS
effect on total microtubule assembly / amount of microtubules formed in 45 minutes (Bovine brain tubulin [1]; [3]): no effect; also recorded: without an effect
effect on total microtubule assembly / amount of microtubules formed in 45 minutes (Bovine brain tubulin [1]; 34 μM tubulin, 37° C., 45 minutes, vs tubulin alone, listed as 73DRFSVNLDVKHFS85): no effect; also recorded: little or no effect
effect on rate of microtubule assembly (Bovine brain tubulin [1]; [4]): accelerated microtubule assembly; also recorded: increased
effect on microtubule disassembly (pre-formed microtubules): no effect
effect on microtubule disassembly (pre-formed microtubules; listed as 73DRFSVNLDVKHFS85): little or no effect
effect on thermal aggregation of tubulin (Bovine brain tubulin [2]; 52° C., 60 minutes): no effect

Molecule: wt αB crystallin: wild-type full-length human αB crystallin, small heat shock protein and molecular chaperone, expressed and purified
effect on microtubule assembly (words) (Bovine brain tubulin [1]; high αB crystallin concentrations, tubulin:αB crystallin ratios <1:4): inhibited
effect on microtubule assembly (words) (Bovine brain tubulin [1]; molar ratios of tubulin to αB crystallin <1:2): inhibited microtubule assembly
effect on microtubule assembly (words) (Bovine brain tubulin [1]; molar ratios of tubulin to αB crystallin between 4:1 and 1:2): favored the assembly of additional microtubules; also recorded: promoted
microtubule assembly (Bovine brain tubulin [1]; ratio of tubulin to αB crystallin 1:10): no microtubules were formed; also recorded: undetectable
amount of microtubules formed less than tubulin alone (Bovine brain tubulin [1]; ratio of tubulin to αB crystallin <1:2, 34 μM tubulin): 30-63%
effect on microtubule assembly (words) (Bovine brain tubulin [1]; ratio of tubulin to αB crystallin >4:1): minimal
effect on microtubule assembly (words) (Bovine brain tubulin [1]; ratio of tubulin to αB crystallin >4:1, listed as αB crystallin): little or no effect
microtubule assembly, normalized (absence of αB crystallin = 1.0) (Bovine brain tubulin [1]; ratios <1.4, FIG. 5): < 1
microtubule assembly, normalized (absence of αB crystallin = 1.0) (Bovine brain tubulin [1]; ratios between 4:1 and 1.2, FIG. 5): > 1.0
microtubule assembly, normalized (absence of αB crystallin = 1.0) (Bovine brain tubulin [1]; tubulin to αB crystallin ratios >4:1, FIG. 5): 1.0
effect on microtubule assembly, vs absence of αB crystallin (Bovine brain tubulin [1]): increased
increase of microtubule assembly (Bovine brain tubulin [1]; αB crystallin protein (4.3 μl of 80 μM), 34 μM tubulin, 37° C., 45 minutes): ~41%
effect on microtubule disassembly (words), vs absence of αB crystallin (pre-formed microtubules): unchanged
effect on microtubule disassembly (words), vs absence of αB crystallin (pre-formed microtubules; listed as Wt αB crystallin): no effect
decrease of thermal aggregation of tubulin (protection) (Bovine brain tubulin [2]; full-length αB crystallin protein, 52° C., 60 minutes): 65%
effect on tubulin aggregation, vs absence of αB crystallin (Bovine brain tubulin [2]; 52° C., 60 minutes): decreased

Now from value to molecule, other results behind:

effect on total microtubule assembly / amount of microtubules formed in 45 minutes (Bovine brain tubulin [1]; 34 μM tubulin, 37° C., 45 minutes, vs tubulin alone, listed as 113FISREFHR120): inhibited microtubule assembly
effect on rate of microtubule assembly (Bovine brain tubulin [1]; [4]): slowed microtubule assembly
decrease of microtubule assembly (Bovine brain tubulin [1]; synthetic peptide (4.3 μl of 2 mM), 34 μM tubulin, 37° C., 45 minutes, vs tubulin alone): approximately 45%
Molecule: FISREFHR
effect on total microtubule assembly / amount of microtubules formed in 45 minutes (Bovine brain tubulin [1]; [3]): decreased the amount of microtubules formed; also recorded: inhibited
effect on microtubule disassembly (pre-formed microtubules): decreased
inhibition of microtubule disassembly (pre-formed microtubules): ~24%
effect on microtubule disassembly (pre-formed microtubules; listed as 113FISREFHR120): inhibited
effect on thermal aggregation of tubulin (Bovine brain tubulin [2]; 52° C., 60 minutes): decreased
effect on thermal aggregation of tubulin (Bovine brain tubulin [2]; 52° C., 60 minutes, listed as 113FISREFHR120): protected

delay of initiation of microtubule assembly relative to tubulin alone (Bovine brain tubulin [1]; 34 μM tubulin, 37° C.): approximately 5 minutes
effect on total microtubule assembly / amount of microtubules formed in 45 minutes (Bovine brain tubulin [1]; [3]): no effect; also recorded: no change
effect on rate of microtubule assembly (Bovine brain tubulin [1]; [4]): slowed the rate of microtubule assembly
Molecule: STSLSPFYLRPPSFLRAP
effect on total microtubule assembly / amount of microtubules formed in 45 minutes (Bovine brain tubulin [1]; 34 μM tubulin, 37° C., 45 minutes, vs tubulin alone, listed as 41STSLSPFYLRPPSFLRAP58): no effect; also recorded: little or no effect
effect on microtubule disassembly (pre-formed microtubules): no effect
effect on microtubule disassembly (pre-formed microtubules; listed as 41STSLSPFYLRPPSFLRAP58): little or no effect
effect on thermal aggregation of tubulin (Bovine brain tubulin [2]; 52° C., 60 minutes): small protective effect

effect on total microtubule assembly / amount of microtubules formed in 45 minutes (Bovine brain tubulin [1]; [3]): inhibited microtubule assembly
Molecule: [Ca+2].[Cl-].[Cl-] [CaCl2, reference compound]

effect on total microtubule assembly / amount of microtubules formed in 45 minutes (Bovine brain tubulin [1]; [3]): increased
effect on total microtubule assembly / amount of microtubules formed in 45 minutes (Bovine brain tubulin [1]; 34 μM tubulin, 37° C., 45 minutes, vs tubulin alone, listed as 131LTITSSLSSDGV142): promote microtubule assembly
effect on rate of microtubule assembly (Bovine brain tubulin [1]; [4]): increased
Molecule: LTITSSLSSDGV
effect on microtubule disassembly (pre-formed microtubules): no effect
effect on microtubule disassembly (pre-formed microtubules; listed as 131LTITSSLSSDGV142): inhibit microtubule disassembly
effect on thermal aggregation of tubulin (Bovine brain tubulin [2]; 52° C., 60 minutes): decreased
effect on thermal aggregation of tubulin (Bovine brain tubulin [2]; 52° C., 60 minutes, listed as 131LTITSSLSSDGV142): protected

microtubule assembly relative to wt αB crystallin (Bovine brain tubulin [1]; mutant αB crystallin, FIG. 4): lower
effect on microtubule assembly, vs absence of αB crystallin (Bovine brain tubulin [1]): unchanged
B1: R120G: single point mutant of human αB crystallin, Arg-120 replaced with glycine (protein)
chain: MDIAIHHPWIRRPFFPFHSPSRLFDQFFGEHLLESDLFPTSTSLSPFYLRPPSFLRAPSWFDTGLSEMRLEKDRFSVNLDVKHFSPEELKVKVLGDVIEVHGKHEERQDEHGFISREFHGKYRIPADVDPLTITSSLSSDGVLTVNGPRKQVSGPERTIPITREEKPAVTAAPKK
microtubule disassembly relative to wt αB crystallin (pre-formed microtubules; mutant αB crystallin, FIG. 4): similar
effect on microtubule disassembly (words), vs absence of αB crystallin (pre-formed microtubules): unchanged
tubulin aggregation relative to wt αB crystallin (Bovine brain tubulin [2]; mutant αB crystallin, FIG. 4): similar
effect on tubulin aggregation, vs absence of αB crystallin (Bovine brain tubulin [2]; 52° C., 60 minutes): decreased
